Molecular target: human serum albumin (Albuminar, Aventis) (human), P02768
Test: SPR (BIACORE 3000), serum albumin immobilised on CM5 chip, analyte injected; Req divided by molecular weight; reference GnRH-Fc

- fold more bound (Req/MW) than GnRH-Fc: > 5 times
B1: GnRH peptide (gonadotropin releasing hormone), P01148 24-33 (peptide, UniProt P01148 24-33, looked up)
peptide: QHWSYGLRPG
modifications: not checked

Source: patent US20050037947A1, “INHIBITION OF DRUG BINDING TO SERUM ALBUMIN” (priority 2003, published 2005)
